Test results published in IntAct's records for PubMed 31515488.

B1: Serine/threonine-protein kinase PAK 6 (Homo sapiens), Q9NQU5 (parent)
chain: MFRKKKKKRPEISAPQNFQHRVHTSFDPKEGKFVGLPPQWQNILDTLRRPKPVVDPSRITRVQLQPMKTVVRGSAMPVDGYISGLLNDIQKLSVISSNTLRGRSPTSRRRAQSLGLLGDEHWATDPDMYLQSPQSERTDPHGLYLSCNGGTPAGHKQMPWPEPQSPRVLPNGLAAKAQSLGPAEFQGASQRCLQLGACLQSSPPGASPPTGTNRHGMKAAKHGSEEARPQSCLVGSATGRPGGEGSPSPKTRESSLKRRLFRSMFLSTAATAPPSSSKPGPPPQSKPNSSFRPPQKDNPPSLVAKAQSLPSDQPVGTFSPLTTSDTSSPQKSLRTAPATGQLPGRSSPAGSPRTWHAQISTSNLYLPQDPTVAKGALAGEDTGVVTHEQFKAALRMVVDQGDPRLLLDSYVKIGEGSTGIVCLAREKHSGRQVAVKMMDLRKQQRRELLFNEVVIMRDYQHFNVVEMYKSYLVGEELWVLMEFLQGGALTDIVSQVRLNEEQIATVCEAVLQALAYLHAQGVIHRDIKSDSILLTLDGRVKLSDFGFCAQISKDVPKRKSLVGTPYWMAPEVISRSLYATEVDIWSLGIMVIEMVDGEPPYFSDSPVQAMKRLRDSPPPKLKNSHKVSPVLRDFLERMLVRDPQERATAQELLDHPFLLQTGLPECLVPLIQLYRKQTSTC
B2: Enhancer of mRNA-decapping protein 3 (Homo sapiens), Q96F86 (parent)
chain: MATDWLGSIVSINCGDSLGVYQGRVSAVDQVSQTISLTRPFHNGVKCLVPEVTFRAGDITELKILEIPGPGDNQHFGDLHQTELGPSGAGCQVGINQNGTGKFVKKPASSSSAPQNIPKRTDVKSQDVAVSPQQQQCSKSYVDRHMESLSQSKSFRRRHNSWSSSSRHPNQATPKKSGLKNGQMKNKDDECFGDDIEEIPDTDFDFEGNLALFDKAAVFEEIDTYERRSGTRSRGIPNERPTRYRHDENILESEPIVYRRIIVPHNVSKEFCTDSGLVVPSISYELHKKLLSVAEKHGLTLERRLEMTGVCASQMALTLLGGPNRLNPKNVHQRPTVALLCGPHVKGAQGISCGRHLANHDVQVILFLPNFVKMLESITNELSLFSKTQGQQVSSLKDLPTSPVDLVINCLDCPENVFLRDQPWYKAAVAWANQNRAPVLSIDPPVHEVEQGIDAKWSLALGLPLPLGEHAGRIYLCDIGIPQQVFQEVGINYHSPFGCKFVIPLHSA
B3: Cyclin-H (Homo sapiens), P51946 (parent)
chain: MYHNSSQKRHWTFSSEEQLARLRADANRKFRCKAVANGKVLPNDPVFLEPHEEMTLCKYYEKRLLEFCSVFKPAMPRSVVGTACMYFKRFYLNNSVMEYHPRIIMLTCAFLACKVDEFNVSSPQFVGNLRESPLGQEKALEQILEYELLLIQQLNFHLIVHNPYRPFEGFLIDLKTRYPILENPEILRKTADDFLNRIALTDAYLLYTPSQIALTAILSSASRAGITMESYLSESLMLKENRTCLSQLLDIMKSMRNLVKKYEPPRSEEVAVLKQKLERCHSAELALNVITKKRKGYEDDDYVSKKSKHEEEEWTDDDLVESL
partner: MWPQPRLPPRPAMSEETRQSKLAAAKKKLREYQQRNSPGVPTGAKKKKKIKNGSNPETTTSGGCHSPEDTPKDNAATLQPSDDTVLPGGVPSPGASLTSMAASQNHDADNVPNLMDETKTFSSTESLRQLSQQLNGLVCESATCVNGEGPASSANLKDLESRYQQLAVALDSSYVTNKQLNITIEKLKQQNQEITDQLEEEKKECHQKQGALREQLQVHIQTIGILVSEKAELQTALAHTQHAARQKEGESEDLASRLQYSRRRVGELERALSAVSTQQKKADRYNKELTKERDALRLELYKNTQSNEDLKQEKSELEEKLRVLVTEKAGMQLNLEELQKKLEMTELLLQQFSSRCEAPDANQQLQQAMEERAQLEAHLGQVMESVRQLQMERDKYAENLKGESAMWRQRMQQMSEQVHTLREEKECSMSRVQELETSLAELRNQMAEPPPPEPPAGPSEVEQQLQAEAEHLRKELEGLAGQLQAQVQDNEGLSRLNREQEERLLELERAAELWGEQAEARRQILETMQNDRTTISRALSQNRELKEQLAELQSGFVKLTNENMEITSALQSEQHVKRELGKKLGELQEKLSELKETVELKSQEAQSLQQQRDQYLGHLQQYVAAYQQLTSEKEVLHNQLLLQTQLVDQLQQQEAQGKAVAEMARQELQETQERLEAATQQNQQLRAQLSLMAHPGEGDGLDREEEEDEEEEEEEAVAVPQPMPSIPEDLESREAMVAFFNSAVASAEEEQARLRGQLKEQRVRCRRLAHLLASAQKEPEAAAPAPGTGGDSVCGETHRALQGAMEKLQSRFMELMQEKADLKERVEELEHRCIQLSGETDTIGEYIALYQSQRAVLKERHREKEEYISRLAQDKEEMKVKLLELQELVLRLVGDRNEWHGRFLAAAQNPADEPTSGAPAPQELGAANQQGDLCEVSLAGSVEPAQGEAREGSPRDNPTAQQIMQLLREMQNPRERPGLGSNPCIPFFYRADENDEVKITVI
B4: UBX domain-containing protein 6 (Homo sapiens), Q9BZV1 (parent)
chain: MKKFFQEFKADIKFKSAGPGQKLKESVGEKAHKEKPNQPAPRPPRQGPTNEAQMAAAAALARLEQKQSRAWGPTSQDTIRNQVRKELQAEATVSGSPEAPGTNVVSEPREEGSAHLAVPGVYFTCPLTGATLRKDQRDACIKEAILLHFSTDPVAASIMKIYTFNKDQDRVKLGVDTIAKYLDNIHLHPEEEKYRKIKLQNKVFQERINCLEGTHEFFEAIGFQKVLLPAQDQEDPEEFYVLSETTLAQPQSLERHKEQLLAAEPVRAKLDRQRRVFQPSPLASQFELPGDFFNLTAEEIKREQRLRSEAVERLSVLRTKAMREKEEQRGLRKYNYTLLRVRLPDGCLLQGTFYARERLGAVYGFVREALQSDWLPFELLASGGQKLSEDENLALNECGLVPSALLTFSWDMAVLEDIKAAGAEPDSILKPELLSAIEKLL
partner: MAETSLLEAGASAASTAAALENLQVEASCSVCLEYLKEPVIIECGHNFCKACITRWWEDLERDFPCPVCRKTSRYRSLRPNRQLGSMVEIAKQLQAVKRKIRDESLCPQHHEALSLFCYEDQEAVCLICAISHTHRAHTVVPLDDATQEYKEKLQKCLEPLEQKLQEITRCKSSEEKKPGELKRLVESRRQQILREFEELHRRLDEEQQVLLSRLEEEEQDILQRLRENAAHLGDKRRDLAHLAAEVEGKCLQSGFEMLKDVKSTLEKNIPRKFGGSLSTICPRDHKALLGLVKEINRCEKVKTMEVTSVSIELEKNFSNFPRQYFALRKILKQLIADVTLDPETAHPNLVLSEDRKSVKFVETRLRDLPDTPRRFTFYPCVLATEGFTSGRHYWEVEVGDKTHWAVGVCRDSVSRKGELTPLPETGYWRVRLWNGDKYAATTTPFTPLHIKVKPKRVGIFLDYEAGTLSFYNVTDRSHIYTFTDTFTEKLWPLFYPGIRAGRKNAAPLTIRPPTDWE
B5: Ras-related protein Rab-39B (Homo sapiens), Q96DA2 (parent)
chain: MEAIWLYQFRLIVIGDSTVGKSCLIRRFTEGRFAQVSDPTVGVDFFSRLVEIEPGKRIKLQIWDTAGQERFRSITRAYYRNSVGGLLLFDITNRRSFQNVHEWLEETKVHVQPYQIVFVLVGHKCDLDTQRQVTRHEAEKLAAAYGMKYIETSARDAINVEKAFTDLTRDIYELVKRGEITIQEGWEGVKSGFVPNVVHSSEEVVKSERRCLC
partner: B3 partner
B6: Fibronectin type III and SPRY domain-containing protein 2 (Homo sapiens), A1L4K1 (parent)
chain: MEEESGEELGLDRSTPKDFHFYHMDLYDSEDRLHLFPEENTRMRKVVQAEMANESRGAGDGKAQRDLQEEVDELVHLYGLEDDHELGDEFVDENIPRTGVSEYPPYMMKRRDPAREQRDWRLSGEAAEAEDLGFGGWGSAGQCQDLREAYRYTHGRASEEYECYVIPEEEDEEEAADVFCVTCKTPIRAFQKVFDEHKEHEVIPLNEALESAKDEIHKNMYKLEKQIIEMENFANHLEEVFITVEENFGKQEQNFESHYNEILETLAQKYEEKIQALGEKKKEKLEALYGQLVSCGENLDTCKELMETIEEMCHEEKVDFIKDAVAMADRLGKFLKTKTDVEISAQPEFEDQTLDFSDVEQLMGSINTIPAPSAPVINPQVPNSATGSSVRVCWSLYSDDTVESYQLSYRPVQDSSPGTDQAEFTVTVKETYCSVTNLVPNTQYEFWVTAHNRAGPSPSSERAVYMTAPSPPIIKTKEIRSCEEAVLICWESGNLNPVDSYTVELTQAESPEASGVTESVVGIPTCESVVQLQPGRSYIIYVRALNMGGPSVRSEPATVHTIGSYFRLNKDTCHPWLTISEDGLTAVRSERRTPARELSPSDTHFTRCVAVMGNLIPVRGHHYWEVEVDEHLDYRVGVAFADVRKQEDLGANCLSWCMRHTFASSRHKYEFLHNRTTPDIRITVPPKKIGILLDYEHSKLSFFNVDLSQHLYTFSCQLHEFVHPCFSLEKPGCLKVHNGISMPKHVTFY
partner: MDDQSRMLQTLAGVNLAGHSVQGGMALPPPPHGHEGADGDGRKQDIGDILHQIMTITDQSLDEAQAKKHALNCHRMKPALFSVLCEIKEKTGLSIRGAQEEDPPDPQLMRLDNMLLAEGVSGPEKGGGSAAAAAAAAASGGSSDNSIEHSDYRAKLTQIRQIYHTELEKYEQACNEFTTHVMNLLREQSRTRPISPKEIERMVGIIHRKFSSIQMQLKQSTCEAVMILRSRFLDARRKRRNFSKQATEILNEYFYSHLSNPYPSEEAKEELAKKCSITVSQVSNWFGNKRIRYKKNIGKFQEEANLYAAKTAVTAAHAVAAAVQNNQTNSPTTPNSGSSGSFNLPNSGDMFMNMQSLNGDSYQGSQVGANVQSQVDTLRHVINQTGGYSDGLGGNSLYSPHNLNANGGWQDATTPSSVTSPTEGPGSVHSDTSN

Variants of: B1
Details: with rhoj_human RHOJ

| effect of a mutation on the interaction | Variant |
| --- | --- |
| with no effect | V54M |

Variants of: B2
Details: with ddx6_human DDX6, P26196
ddx6_human DDX6, P26196, sequence (P26196 whole entry): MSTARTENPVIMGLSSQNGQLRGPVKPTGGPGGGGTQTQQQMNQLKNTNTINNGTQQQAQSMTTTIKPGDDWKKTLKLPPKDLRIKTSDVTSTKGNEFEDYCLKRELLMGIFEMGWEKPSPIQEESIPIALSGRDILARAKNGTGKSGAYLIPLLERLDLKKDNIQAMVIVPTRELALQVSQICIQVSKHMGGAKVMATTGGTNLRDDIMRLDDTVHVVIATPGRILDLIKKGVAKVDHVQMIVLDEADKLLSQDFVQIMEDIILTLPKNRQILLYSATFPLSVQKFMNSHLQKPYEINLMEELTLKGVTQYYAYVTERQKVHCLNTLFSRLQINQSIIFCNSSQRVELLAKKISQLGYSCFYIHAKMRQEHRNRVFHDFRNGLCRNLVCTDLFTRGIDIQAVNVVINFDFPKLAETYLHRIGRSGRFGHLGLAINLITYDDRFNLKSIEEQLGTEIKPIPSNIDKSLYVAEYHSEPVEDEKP

| effect of a mutation on the interaction | Variant |
| --- | --- |
| with no effect | R232G |

Variants of: B3
Details: with goga2_human GOLGA2, Q08379

| effect of a mutation on the interaction | Variant |
| --- | --- |
| disrupting interaction strength | N155T |

Variants of: B4
Details: with tri39_human TRIM39, Q9HCM9

| effect of a mutation on the interaction | Variant |
| --- | --- |
| with no effect | A361V |

Variants of: B5
Details: with goga2_human GOLGA2, Q08379

| effect of a mutation on the interaction | Variant |
| --- | --- |
| with no effect | R177S |

Variants of: B6
Details: with pbx3_human PBX3, P40426

| effect of a mutation on the interaction | Variant |
| --- | --- |
| with no effect | K333T |
